Substitutions are numbered along the chain they refer to.
B1: CD3ε-specific DARPin version 1 (designed binder)
chain: DLGQKLLEAAWAGQDDEVRELLKAGADVNAKNSRGWTPLHTAAQTGHLEIFEVLLKAGADVNAKDDKGVTPLHLAAALGHLEIVEVLLKAGADVNAQDSWGTTPADLAAKYGHEDIAEVLQKAA
notes: four repeats (N-cap/ IR1/ IR2/ C-cap) joined in the printed order; also called CD3-v1; variant-1 (v1)
B2: CD3ε-specific DARPin version 3 (designed binder)
chain: B1 chain with D15L, E20I, D65T, D66N, G68R, Q97R, S99T, E114R
notes: four repeats (N-cap/ IR1/ IR2/ C-cap) joined in the printed order; also called CD3-v3; CD3v3
B3: CD3ε-specific DARPin version 2 (designed binder)
chain: B1 chain with D65N, G68R, Q97R, E114Q
notes: four repeats (N-cap/ IR1/ IR2/ C-cap) joined in the printed order; also called CD3-v2; CD3v2
B4: NY_1xCD3 (bispecific DARPin T cell engager: HLA-A*0201/NY-ESO1(157-165)-specific DARPin NY_1 linked to a CD3ε-specific DARPin) (designed binder)
chain: DLGKKLLQAARAGQLDEVRELLKAGADVNAKDLIGVTPLHLAAFSGHLEIVEVLLKASADVNAKDVSGRTPLHVAAKHGHLEIVEVLLKAGADVNAKDLIGFTPLHLAAQFGHLEIVEVLLKAGADVNAQDKSGKTPADLAARAGHQDIAEVLQKAAGSPTPTPTTPTPTPTTPTPTPTGSDLGQKLLEAAWAGQDDEVRELLKAGADVNAKNSRGWTPLHTAAQTGHLEIFEVLLKAGADVNAKNDKRVTPLHLAAALGHLEIVEVLLKAGADVNARDSWGTTPADLAAKYGHQDIAEVLQKAA

Legend:
CD3ε = CD3ε (UniProt P07766 23-207, SPR construct not described; extracellular domain taken by convention from the UniProt topology. In cell assays CD3ε is full mature chain in the TCR/CD3 complex); test: SPR; Listed KD-values were obtained by surface plasmon resonance; format, CD3ε construct and conditions not told
Sequence of CD3ε (P07766 23-207): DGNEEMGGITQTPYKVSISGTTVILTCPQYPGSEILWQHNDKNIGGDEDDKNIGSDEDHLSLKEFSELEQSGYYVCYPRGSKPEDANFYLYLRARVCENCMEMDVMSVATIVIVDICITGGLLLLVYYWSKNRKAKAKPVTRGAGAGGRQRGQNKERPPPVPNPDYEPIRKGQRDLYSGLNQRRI

[1] = biological target: HLA-A*0201/NY-ESO1(157-165)(9V) complex, refolded and biotinylated (human, p9C to valine (9V) (stands in the printed letters), biotin on the Avi tag); test: SPR; ProteOn; the methods tell an inverse set-up (MRGS-6His tagged DARPin captured by an immobilised RGS-His antibody on a GLC chip) and also HLA-A*0201/peptide targets on a neutravidin chip at different dilutions; HEPES buffer; settings: both partners purified

Kd (CD3ε) [nM]	Kd [1] [nM]	koff [1] [s⁻¹]	kon [1] [M⁻¹ s⁻¹]	Binder
35 ± 21				B1
6				B2
14 ± 3				B3
	1.23	0.00113	925000	B4

— PMC12664392 (iScience, 2025)
